Sequences and labels used below:
B1: glmS ribozyme (parent)
chain: AUAAAAGCGCCAGAACUACAGAAAUGUAGUUGACGAGGAGGAGGUUUAUCGAAUUUUCGGCGGAUGCCUCCAAA

Details in all cases: with glucosamine-6-phosphate
The variants in series [1] derive from B1. The series can be described thus: kcat; higher = faster cleavage; RNA array. The method, boiled down: (§1)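 The measurements used barcoded ribozyme variants on sequenced MiSeq chips, transcribed in situ by E. coli RNA polymerase and tracked at 37 °C with a hybridised Cy3 probe. Glucosamine-6-phosphate, 40 μM to 10 mM in HEPES/KCl/Mg(OAc)2 buffer, was flowed in while tiles were imaged over ~14 h. Baseline-normalised signals, also normalised to non-cleaving reference variants, gave per-tile medians that were fit to one- or two-exponential decays for kobs. kcat and KM resulted from weighted Michaelis–Menten fits across concentrations.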

In series [2] the parent is B1. The series can be described thus: KM; higher = weaker cofactor use; RNA array. The method, boiled down:
as §1

Variants of B1 are the subject of series [3]. Nature of the series: self-cleavage kobs at 2500 uM GlcN6P; higher = faster cleavage; RNA array. The method, boiled down: as §1
The variants in series [4] derive from B1. Nature of the series: self-cleavage kobs at 10000 uM GlcN6P; higher = faster cleavage; RNA array. The method, boiled down: as §1
The variants in series [5] derive from B1. Nature of the series: self-cleavage kobs at 640 uM GlcN6P; higher = faster cleavage; RNA array. The method, boiled down:
as §1

The variants in series [6] derive from B1. Nature of the series: self-cleavage kobs at 40 uM GlcN6P; higher = faster cleavage; RNA array. The method in brief: as §1
The variants in series [7] derive from B1. The series can be described thus: self-cleavage kobs at 160 uM GlcN6P; higher = faster cleavage; RNA array. The method, boiled down: as §1

Broadly, the kcat is the maximal rate divided by the concentration of active sites. What is called KM is the concentration of substrate that gives half-maximal velocity.

± gives the standard error. For some of these results: Variants at the floor of the assay were thinned out.

On to A48G U55A, for which the kcat in the series with glucosamine-6-phosphate [1] stood at 0.000106 ± 2.6e-06 s⁻¹. The KM with glucosamine-6-phosphate [2] was found to be 1160 ± 180 µM. Also, the “self-cleavage kobs at 2500 uM GlcN6P” value with glucosamine-6-phosphate [3] was found to be 7.8e-05 ± 3.7e-05 s⁻¹. Also, the “self-cleavage kobs at 10000 uM GlcN6P” value with glucosamine-6-phosphate [4] amounted to 9.5e-05 ± 8.9e-06 s⁻¹.

Take C50U U55G: the kcat with glucosamine-6-phosphate [1] is 4.41e-05 ± 2.5e-06 s⁻¹. The KM in the series with glucosamine-6-phosphate [2] came out at 304 ± 130 µM. Also, in the series with glucosamine-6-phosphate [5], the “self-cleavage kobs at 640 uM GlcN6P” value was 2.74e-05 ± 1.4e-05 s⁻¹. The “self-cleavage kobs at 2500 uM GlcN6P” value with glucosamine-6-phosphate [3] worked out at 4.31e-05 ± 7.9e-06 s⁻¹. Moreover, the “self-cleavage kobs at 10000 uM GlcN6P” value in the series with glucosamine-6-phosphate [4] is 4.07e-05 ± 6.8e-06 s⁻¹.

For U45A, the kcat in the series with glucosamine-6-phosphate [1] worked out at 0.0731 ± 0.026 s⁻¹. In addition, in the series with glucosamine-6-phosphate [2], the KM was found to be 1680 ± 700 µM. Further, the “self-cleavage kobs at 40 uM GlcN6P” value with glucosamine-6-phosphate [6] amounted to 0.00192 ± 4e-05 s⁻¹. For the same variant, the “self-cleavage kobs at 160 uM GlcN6P” value with glucosamine-6-phosphate [7] is 0.00532 ± 0.00022 s⁻¹. Moreover, the “self-cleavage kobs at 640 uM GlcN6P” value with glucosamine-6-phosphate [5] was 0.0167 ± 0.00063 s⁻¹. The “self-cleavage kobs at 2500 uM GlcN6P” value in the series with glucosamine-6-phosphate [3] was determined as 0.0529 ± 0.0042 s⁻¹. Besides, the “self-cleavage kobs at 10000 uM GlcN6P” value with glucosamine-6-phosphate [4] came to 0.0751 ± 0.0041 s⁻¹.

On to G13A G37U, for which the catalytic constant (kcat) with glucosamine-6-phosphate [1] is 1.65e-05 ± 1.7e-06 s⁻¹. The KM with glucosamine-6-phosphate [2] came out at 621 ± 190 µM. Also, the “self-cleavage kobs at 40 uM GlcN6P” value in the series with glucosamine-6-phosphate [6] is less than 1e-05 s⁻¹. For the same variant, the “self-cleavage kobs at 10000 uM GlcN6P” value in the series with glucosamine-6-phosphate [4] was less than 1e-05 s⁻¹.

On to A6C C70G, for which, in the series with glucosamine-6-phosphate [1], the kcat is 1.09e-05 ± 2.1e-06 s⁻¹.

For A39G G40C, the kcat with glucosamine-6-phosphate [1] was determined as 9.61e-05 ± 1.3e-05 s⁻¹. Further, the “self-cleavage kobs at 640 uM GlcN6P” value with glucosamine-6-phosphate [5] is 4.2e-05 ± 1.4e-05 s⁻¹. In addition, the “self-cleavage kobs at 2500 uM GlcN6P” value with glucosamine-6-phosphate [3] was determined as 0.000101 ± 1.8e-05 s⁻¹. Also, the “self-cleavage kobs at 10000 uM GlcN6P” value with glucosamine-6-phosphate [4] was found to be 8.35e-05 ± 1.4e-05 s⁻¹.

Consider C11U G38C, for which the kcat with glucosamine-6-phosphate [1] was less than 1e-05 s⁻¹. Further, the “self-cleavage kobs at 640 uM GlcN6P” value with glucosamine-6-phosphate [5] was less than 1e-05 s⁻¹. For the same variant, the “self-cleavage kobs at 2500 uM GlcN6P” value with glucosamine-6-phosphate [3] was less than 1e-05 s⁻¹.

As to U30A U46G, in the series with glucosamine-6-phosphate [1], the turnover number (kcat) was found to be 0.000804 ± 0.00016 s⁻¹. Also, the “self-cleavage kobs at 40 uM GlcN6P” value with glucosamine-6-phosphate [6] is 4.09e-05 ± 1.5e-05 s⁻¹. Besides, the “self-cleavage kobs at 2500 uM GlcN6P” value in the series with glucosamine-6-phosphate [3] worked out at 0.000638 ± 0.00022 s⁻¹. The “self-cleavage kobs at 10000 uM GlcN6P” value with glucosamine-6-phosphate [4] amounted to 0.000702 ± 8.5e-05 s⁻¹.

On to C50G C70G, for which, in the series with glucosamine-6-phosphate [1], the kcat came to 0.000103 ± 1.8e-05 s⁻¹. The “self-cleavage kobs at 40 uM GlcN6P” value with glucosamine-6-phosphate [6] is 7.4e-05 ± 7.4e-06 s⁻¹. The “self-cleavage kobs at 160 uM GlcN6P” value with glucosamine-6-phosphate [7] worked out at 0.000142 ± 9.9e-06 s⁻¹. In addition, the “self-cleavage kobs at 640 uM GlcN6P” value with glucosamine-6-phosphate [5] was determined as 0.000112 ± 1.2e-05 s⁻¹. Further, the “self-cleavage kobs at 2500 uM GlcN6P” value with glucosamine-6-phosphate [3] was found to be 9.3e-05 ± 1e-05 s⁻¹. For the same variant, the “self-cleavage kobs at 10000 uM GlcN6P” value with glucosamine-6-phosphate [4] is 8.05e-05 ± 8.7e-06 s⁻¹.

A15C U30C A52G G63C: in the series with glucosamine-6-phosphate [1], the turnover number (kcat) was less than 1e-05 s⁻¹.

With U54G C58U, the kcat in the series with glucosamine-6-phosphate [1] worked out at 0.000129 ± 7.5e-06 s⁻¹. The Michaelis-Menten constant (KM) in the series with glucosamine-6-phosphate [2] was 6130 ± 820 µM. Moreover, the “self-cleavage kobs at 2500 uM GlcN6P” value with glucosamine-6-phosphate [3] was determined as 3.75e-05 ± 1.2e-05 s⁻¹. For the same variant, in the series with glucosamine-6-phosphate [4], the “self-cleavage kobs at 10000 uM GlcN6P” value is 7.98e-05 ± 9.4e-06 s⁻¹.

In the case of A15U G29C, the kcat with glucosamine-6-phosphate [1] was 0.00199 ± 0.00051 s⁻¹. Moreover, in the series with glucosamine-6-phosphate [2], the KM came out at 2340 ± 910 µM. For the same variant, in the series with glucosamine-6-phosphate [6], the “self-cleavage kobs at 40 uM GlcN6P” value worked out at 4.56e-05 ± 9.9e-06 s⁻¹. Besides, the “self-cleavage kobs at 160 uM GlcN6P” value in the series with glucosamine-6-phosphate [7] was found to be 0.000116 ± 3.3e-05 s⁻¹. Further, the “self-cleavage kobs at 640 uM GlcN6P” value in the series with glucosamine-6-phosphate [5] was found to be 0.000432 ± 7.6e-05 s⁻¹. Further, in the series with glucosamine-6-phosphate [3], the “self-cleavage kobs at 2500 uM GlcN6P” value is 0.000809 ± 0.00016 s⁻¹. The “self-cleavage kobs at 10000 uM GlcN6P” value with glucosamine-6-phosphate [4] is 0.00191 ± 0.0003 s⁻¹.

G44C A52G: in the series with glucosamine-6-phosphate [1], the kcat is less than 1e-05 s⁻¹. Besides, the KM with glucosamine-6-phosphate [2] stood at 279 ± 110 µM. Besides, the “self-cleavage kobs at 40 uM GlcN6P” value in the series with glucosamine-6-phosphate [6] was less than 1e-05 s⁻¹. Moreover, the “self-cleavage kobs at 160 uM GlcN6P” value in the series with glucosamine-6-phosphate [7] is less than 1e-05 s⁻¹. In addition, in the series with glucosamine-6-phosphate [5], the “self-cleavage kobs at 640 uM GlcN6P” value is less than 1e-05 s⁻¹.

U54A C70U: in the series with glucosamine-6-phosphate [1], the catalytic constant (kcat) was 0.00432 ± 0.00063 s⁻¹. Also, the KM in the series with glucosamine-6-phosphate [2] is 78.3 ± 20 µM. Moreover, the “self-cleavage kobs at 40 uM GlcN6P” value with glucosamine-6-phosphate [6] was found to be 0.00148 ± 0.00013 s⁻¹. In addition, the “self-cleavage kobs at 160 uM GlcN6P” value with glucosamine-6-phosphate [7] was 0.00258 ± 0.00056 s⁻¹. The “self-cleavage kobs at 640 uM GlcN6P” value in the series with glucosamine-6-phosphate [5] amounted to 0.00479 ± 0.0013 s⁻¹. Moreover, the “self-cleavage kobs at 2500 uM GlcN6P” value in the series with glucosamine-6-phosphate [3] turned out to be 0.00404 ± 0.0014 s⁻¹.

For the variant A12U G40C, the kcat in the series with glucosamine-6-phosphate [1] is 0.00584 ± 0.0009 s⁻¹. The KM with glucosamine-6-phosphate [2] was determined as 1420 ± 310 µM. Besides, in the series with glucosamine-6-phosphate [6], the “self-cleavage kobs at 40 uM GlcN6P” value amounted to 0.000175 ± 2e-05 s⁻¹. In the series with glucosamine-6-phosphate [7], the “self-cleavage kobs at 160 uM GlcN6P” value was found to be 0.000567 ± 9.5e-05 s⁻¹. The “self-cleavage kobs at 640 uM GlcN6P” value in the series with glucosamine-6-phosphate [5] came to 0.0014 ± 0.00029 s⁻¹. Also, in the series with glucosamine-6-phosphate [3], the “self-cleavage kobs at 2500 uM GlcN6P” value was 0.00529 ± 0.0011 s⁻¹. The “self-cleavage kobs at 10000 uM GlcN6P” value with glucosamine-6-phosphate [4] came out at 0.00509 ± 0.00057 s⁻¹.

As to A15G C16A C70U, the kcat with glucosamine-6-phosphate [1] was 0.000398 ± 6.7e-05 s⁻¹. For the same variant, the KM with glucosamine-6-phosphate [2] worked out at 804 ± 260 µM. For the same variant, in the series with glucosamine-6-phosphate [7], the “self-cleavage kobs at 160 uM GlcN6P” value was 6.78e-05 ± 2.4e-05 s⁻¹. Besides, the “self-cleavage kobs at 640 uM GlcN6P” value with glucosamine-6-phosphate [5] was determined as 0.000168 ± 2.9e-05 s⁻¹. Also, the “self-cleavage kobs at 2500 uM GlcN6P” value with glucosamine-6-phosphate [3] is 0.000315 ± 6.5e-05 s⁻¹.

For the origin of these results see the supplement of paper PMC7125110.
